In patent publication US20230025280A1, “PH RESPONSIVE COMPOSITIONS, FORMULATIONS, AND METHODS OF IMAGING A TUMOR” (ONCONANO MEDICINE, INC, priority 2019, published 2023):
Values joined by “and” are separate entries in the source; they are usually repeats but may differ in a detail not shown here. Equal values may be shown once. “Also recorded” adds a separate entry of the source.

Experiment: Phase 1 (1a/1b) pharmacokinetics: plasma concentrations after single IV dose (validated direct fluorescence reader assay), noncompartmental analysis
Type: in vivo, human
Conditions: for AUC0-24 hr / AUCall / AUClast / C10 m / Cmax / T1/2 / Tmax: 1.2 mg/kg single IV; for Plasma Conc: 1.20 mg/kg
Excerpt: Phase 1 is a single-Principal Investigator, non-randomized, open-label, single-arm, cross-sectional study to evaluate the safety, PK profile, and imaging feasibility of Compound 1 in patients with solid cancers who require surgical excision. The main purpose of this study was to investigate the safety, PK, and feasibility of Compound 1 as an intra-operative optical imaging agent to detect tumors and metastatic lymph nodes in solid cancers. The study was intended to investigate the optimal dose range of Compound 1 for an adequate TBR and CNR of fluorescence obtained intraoperatively at 24 (±8) hours post dosing and with ex vivo specimens using ICG compatible cameras and imaging devices.
Phase 1 enrolled 30 patients with solid cancers (HNSCC, breast cancer, esophageal cancer, or colorectal cancer) who have a biopsy-confirmed diagnosis of respective tumor types and are scheduled to undergo surgical resection of the tumor. The study design included a standard 3+3 design for the dose-escalation portion (Phase 1a; N=18 maximum) followed by a dose-expansion portion (Phase 1b; N=15). All patients received a single I.V. dose of Compound 1, followed by routine surgery approximately 24 hours after infusion of Compound 1.
Phase 1a was a dose-finding study performed in 5 cohorts of 3 patients each. The dose levels evaluated were […], and 1.2 mg/kg, in this sequence. Inter-cohort dose escalation took place after the last patient in the previous cohort completed the Day 10 safety assessment. Safety, PK, and imaging feasibility were evaluated in both the Phase 1a and 1b portions of the study. Patient safety is assessed during the study and for up to 10 days post-dose.
Study design: Single Compound 1 IV dose was administered as a 1-5 minute IV infusion to patients in five cohorts (0.1, 0.3, 0.5, 0.8, and 1.2 mg/kg) with three patients per cohort in Phase 1a and 15 patients at a dose of 1.2 mg/kg in Phase 1b. Patient demographic information including tumor types is presented in Table 4 and 5 for Phase 1a and Table 5 for Phase 1b. Intertek Pharmaceutical Services (San Diego, Calif.) determined Compound 1 plasma concentrations using a validated direct fluorescence reader assay. Pacific BioDevelopment (Davis, Calif.) performed the PK analysis.
Sample collection: Blood samples were collected prior to infusion and at 10 minutes and 0.5, 1, 3, 8, 24, 48, 72, and 240 hours after infusion.
Analysis: Plasma concentration versus time profiles were generated for each patient. Pharmacokinetic parameters were estimated using Phoenix WinNonlin (version 8.0). According to SOP, concentrations reported as BQL were set to 0 except for the 0.5 h sample for subject #ON1102, which was set to LLOQ/2 ([…] value used in parameter calculations) and the 24 and 48 h samples.
If the coefficient of determination for the terminal slope estimation was less than 0.8, T1/2 was not reported (NR). AUC extrapolated to infinity is not reported for any data set because in all cases the % extrapolated AUC was greater than 20% and thus the AUCinf estimate would not be reliable. The concentration at 10 minutes, the first time point measured (C10m), was also reported for each patient.
The area under the plasma concentration versus time curves from dosing to the last time point with a measurable concentration (AUClast) was estimated by the linear trapezoid method. The last three or more time points were used to estimate the elimination rate constant (λz) which was used to estimate the terminal-phase half-life (T1/2) and AUC from zero to infinity (AUCINF) from the following equations: […]

Q: With “PEO90-140-b-P(DBA60-150-r-ICG0-3-r-AMA0-3) [Compound 1]” as the substance, how does the AUC0-24 hr (Phase 1a, mean) read?
A: 495 µg·h/mL

Q: And the AUCall (Phase 1a, mean)?
A: 842 µg·h/mL

Q: And the AUClast (Phase 1a, mean)?
A: 682 µg·h/mL

Q: And the C10 m (Phase 1a, mean)?
A: 31.7 µg/mL

Q: And the Cmax (Phase 1a, mean)?
A: 31700 ng/mL

Q: What about the T1/2 (Phase 1a, mean) of the same substance?
A: 36.5 h

Q: What about the Tmax (Phase 1a, mean) of the same substance?
A: 0.170 h

Q: What about the AUC0-24 hr (Phase 1a, median) of the same substance?
A: 563 µg·h/mL

Q: And the AUCall (Phase 1a, median)?
A: 1020 µg·h/mL

Q: What about the AUClast (Phase 1a, median) of the same substance?
A: 891 µg·h/mL

Q: And the C10 m (Phase 1a, median)?
A: 33.0 µg/mL

Q: And the Cmax (Phase 1a, median)?
A: 33000 ng/mL

Q: What about the T1/2 (Phase 1a, median) of the same substance?
A: 32.5 h

Q: And the Tmax (Phase 1a, median)?
A: 0.170 h

Q: And the “Plasma Conc” value (Phase 1a, 0.170 hr, individual subject)?
A: 28000 ng/mL and 34100 ng/mL and 33000 ng/mL

Q: What about the “Plasma Conc” value (Phase 1a, 0.170 hr, mean) of the same substance?
A: 31700 ng/mL

Q: And the “Plasma Conc” value (Phase 1a, 0.500 hr, individual subject)?
A: 23900 ng/mL and 30500 ng/mL and 31800 ng/mL

Q: And the “Plasma Conc” value (Phase 1a, 0.500 hr, mean)?
A: 28700 ng/mL

Q: And the “Plasma Conc” value (Phase 1a, 1.00 hr, individual subject)?
A: 23900 ng/mL and 32100 ng/mL and 25800 ng/mL

Q: And the “Plasma Conc” value (Phase 1a, 1.00 hr, mean)?
A: 27300 ng/mL

Q: What about the “Plasma Conc” value (Phase 1a, 3.00 hr, individual subject) of the same substance?
A: 24500 ng/mL and 28400 ng/mL and 27800 ng/mL

Q: What about the “Plasma Conc” value (Phase 1a, 3.00 hr, mean) of the same substance?
A: 26900 ng/mL

Q: What about the “Plasma Conc” value (Phase 1a, 8.00 hr, individual subject) of the same substance?
A: 20500 ng/mL and 24400 ng/mL and 28400 ng/mL

Q: And the “Plasma Conc” value (Phase 1a, 8.00 hr, mean)?
A: 24400 ng/mL

Q: And the “Plasma Conc” value (Phase 1a, 24.0 hr, individual subject)?
A: BQL (BQL (<10 μg/mL), set = 0 for PK analysis) and 18.3 μg/mL and 15.6 μg/mL

Q: What about the “Plasma Conc” value (Phase 1a, 24.0 hr, mean) of the same substance?
A: 11300 ng/mL

Q: And the “Plasma Conc” value (Phase 1a, 48.0 hr, individual subject)?
A: BQL (BQL (<10 μg/mL), set = 0 for PK analysis) and 15.6 μg/mL and 10.8 μg/mL

Q: What about the “Plasma Conc” value (Phase 1a, 48.0 hr, mean) of the same substance?
A: 8800 ng/mL

Q: And the “Plasma Conc” value (Phase 1a, 72.0 hr, individual subject)?
A: BQL (BQL (<10 μg/mL), set = 0 for PK analysis)

Q: What about the “Plasma Conc” value (Phase 1a, 72.0 hr, mean) of the same substance?
A: 0 ng/mL

Q: What about the “Plasma Conc” value (Phase 1a, 240 hr, individual subject) of the same substance?
A: BQL (BQL (<10 μg/mL), set = 0 for PK analysis)

Q: What about the “Plasma Conc” value (Phase 1a, 240 hr, mean) of the same substance?
A: 0 ng/mL

Q: And the “Exposure in relation to dose” value (Phase 1a, 0.1-1.2 mg/kg)?
A: dose-related; also recorded: increased proportionally with dose

Q: What about the Mean AUC0-24hr (Phase 1b, 1.2 mg/kg) of the same substance?
A: 638 µg·h/mL

Q: What about the Mean terminal-phase half-life (Phase 1b, 1.2 mg/kg) of the same substance?
A: 46.4 h

Q: And the AUC0-24 hr (Phase 1b, individual subject)?
A: 625 µg·h/mL and 606 µg·h/mL and 502 µg·h/mL and 787 µg·h/mL and 730 µg·h/mL and 585 µg·h/mL and 740 µg·h/mL and 630 µg·h/mL and 684 µg·h/mL and 626 µg·h/mL and 693 µg·h/mL and 562 µg·h/mL and 565 µg·h/mL and 520 µg·h/mL and 721 µg·h/mL

Q: What about the AUCall (Phase 1b, individual subject) of the same substance?
A: 2690 µg·h/mL and 2150 µg·h/mL and 2120 µg·h/mL and 1460 µg·h/mL and 2550 µg·h/mL and 1100 µg·h/mL and 2740 µg·h/mL and 1170 µg·h/mL and 939 µg·h/mL and 1090 µg·h/mL and 3190 µg·h/mL and 1120 µg·h/mL and 747 µg·h/mL and 3350 µg·h/mL

Q: And the AUClast (Phase 1b, individual subject)?
A: 1430 µg·h/mL and 1280 µg·h/mL and 1110 µg·h/mL and 1270 µg·h/mL and 1480 µg·h/mL and 961 µg·h/mL and 1580 µg·h/mL and 1020 µg·h/mL and 684 µg·h/mL and 971 µg·h/mL and 1740 µg·h/mL and 968 µg·h/mL and 957 µg·h/mL and 520 µg·h/mL and 1780 µg·h/mL

Q: And the C10 m (Phase 1b, individual subject)?
A: 30.3 µg/mL and 31.4 µg/mL and 25.5 µg/mL and 40.0 µg/mL and 47.6 µg/mL and 32.6 µg/mL and 31.3 µg/mL and 36.5 µg/mL and 32.1 µg/mL and 35.8 µg/mL and 33.0 µg/mL and 28.0 µg/mL and 28.5 µg/mL and 27.5 µg/mL and 38.6 µg/mL

Q: What about the Cmax (Phase 1b, individual subject) of the same substance?
A: 32400 ng/mL and 32600 ng/mL and 27600 ng/mL and 42200 ng/mL and 47600 ng/mL and 34300 ng/mL and 37700 ng/mL and 34100 ng/mL and 36400 ng/mL and 32000 ng/mL and 29900 ng/mL and 29200 ng/mL and 38600 ng/mL

Q: What about the T1/2 (Phase 1b, individual subject) of the same substance?
A: 43.3 h and 61.4 h and 34.4 h and 38.4 h and 33.6 h and 46.8 h and 34.5 h and 33.4 h and 27.7 h and 83.0 h and 45.5 h and 42.6 h and 77.9 h

Q: And the Tmax (Phase 1b, individual subject)?
A: 3.00 h and 1.00 h and 0.500 h and 0.170 h
